The source of these data is PMC4935880, “COG lobe B sub-complex engages v-SNARE GS15 and functions via regulated interaction with lobe A sub-complex” (Scientific Reports, 2016).

For experiment [1], the target named is GFP-hGS15 (human) (UniProt Q9NYM9). Put plainly: co-IP; GFP IP on GBP (GFP binding protein) beads from lysates of transfected HEK293T cells (50 mM Tris pH 7.4, 150 mM NaCl, 1% Triton X-100), 2 h at room temperature; blotted for COG8, Myc and GFP.
For experiment [2] the target is unchanged. Put plainly: co-IP; HEK293T cells with lobe B-myc and a GFP-tagged partner fractionated into P15, P100 and S100; membrane pellets solubilised with Triton X-100 and incubated with GBP-beads; blotted with anti-Myc and anti-GFP.
Experiment [3] concerns the target T1, whole COG complex isolated from HEK cells (GFP-mCOG3 + hCOG1/2/4-3Myc + hCOG6/8-3Myc + hCOG5/7-3Myc) (human | mouse, UniProt Q8WTW3 1-980; Q14746 1-738; Q8CI04 1-820; Q9H9E3 1-785; Q9UP83 1-860; Q9Y2V7 …).
T1 construct: Human COG1-3Myc in MultiLabel vector; Human COG2Streptag-3Myc in MultiLabel vector; Mouse COG3 in pEGFP-C1; Human COG4-3Myc in MultiLabel vector; Human COG5-3Myc in MultiLabel vector; Human COG6-3Myc in MultiLabel vector; Human COG7-3Myc in MultiLabel vector; Human COG8-3Myc in MultiLabel vector; Elution from TALON by imidazole probably releases His6-GBP together with the GFP-tagged complex; also …
Put plainly: pull-down; GST-tagged GS15 proteins held on Glutathione Sepharose 4B; whole COG complex or lobe B isolated from HEK cells added in 25 mM HEPES-KOH pH 7.4, 25 mM KCl, 2.5 mM magnesium acetate, 1 mM DTT, 0.05% Tween-20, 1 hour at room temperature; Myc blot. The following applies: both partners purified.

In experiment [4] the target is T2, lobe B complex isolated from HEK cells (GFP-hCOG5 + hCOG6/8-3Myc + hCOG7-3Myc) (human, UniProt Q9UP83 1-860; Q9Y2V7 1-657; P83436 1-770; Q96MW5 1-612).
T2 construct: Human COG5 in pEGFP-C1; Human COG6-3Myc in MultiLabel vector; Human COG7 in pCMV-3Myc; Human COG8-3Myc in MultiLabel vector; Elution from TALON by imidazole probably releases His6-GBP together with the GFP-tagged complex; also called lobe B sub-complex; purified lobe B; source: HEK293T, transfected; isolated by Sephacryl S-300 HR gel filtration and TALON-GBP beads, eluted with 350 mM imidazole, …
The description is as above. The following applies: both partners purified.

T2 sequence (Q9UP83 whole entry, chain 1 of 4): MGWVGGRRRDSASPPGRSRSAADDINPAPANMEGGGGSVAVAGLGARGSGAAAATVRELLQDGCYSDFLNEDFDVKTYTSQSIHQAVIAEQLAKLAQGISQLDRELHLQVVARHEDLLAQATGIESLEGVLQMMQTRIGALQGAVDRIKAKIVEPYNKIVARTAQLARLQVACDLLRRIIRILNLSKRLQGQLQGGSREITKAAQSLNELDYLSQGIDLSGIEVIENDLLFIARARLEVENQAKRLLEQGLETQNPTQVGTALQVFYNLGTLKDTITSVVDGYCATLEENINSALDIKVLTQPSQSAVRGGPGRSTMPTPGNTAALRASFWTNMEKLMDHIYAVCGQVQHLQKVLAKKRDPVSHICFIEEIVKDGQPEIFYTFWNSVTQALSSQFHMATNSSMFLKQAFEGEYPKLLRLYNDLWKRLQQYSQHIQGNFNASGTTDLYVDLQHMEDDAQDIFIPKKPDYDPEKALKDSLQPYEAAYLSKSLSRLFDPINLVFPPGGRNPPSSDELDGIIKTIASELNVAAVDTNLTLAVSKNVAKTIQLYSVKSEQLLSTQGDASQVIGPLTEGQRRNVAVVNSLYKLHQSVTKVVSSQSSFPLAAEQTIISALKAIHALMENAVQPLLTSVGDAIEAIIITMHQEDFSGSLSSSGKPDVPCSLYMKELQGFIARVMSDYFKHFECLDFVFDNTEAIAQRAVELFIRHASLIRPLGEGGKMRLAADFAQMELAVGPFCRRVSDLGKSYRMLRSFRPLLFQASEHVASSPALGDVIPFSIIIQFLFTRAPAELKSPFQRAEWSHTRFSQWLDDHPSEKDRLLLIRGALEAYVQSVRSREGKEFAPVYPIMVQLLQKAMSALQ
T2 sequence (Q9Y2V7 whole entry, chain 2 of 4): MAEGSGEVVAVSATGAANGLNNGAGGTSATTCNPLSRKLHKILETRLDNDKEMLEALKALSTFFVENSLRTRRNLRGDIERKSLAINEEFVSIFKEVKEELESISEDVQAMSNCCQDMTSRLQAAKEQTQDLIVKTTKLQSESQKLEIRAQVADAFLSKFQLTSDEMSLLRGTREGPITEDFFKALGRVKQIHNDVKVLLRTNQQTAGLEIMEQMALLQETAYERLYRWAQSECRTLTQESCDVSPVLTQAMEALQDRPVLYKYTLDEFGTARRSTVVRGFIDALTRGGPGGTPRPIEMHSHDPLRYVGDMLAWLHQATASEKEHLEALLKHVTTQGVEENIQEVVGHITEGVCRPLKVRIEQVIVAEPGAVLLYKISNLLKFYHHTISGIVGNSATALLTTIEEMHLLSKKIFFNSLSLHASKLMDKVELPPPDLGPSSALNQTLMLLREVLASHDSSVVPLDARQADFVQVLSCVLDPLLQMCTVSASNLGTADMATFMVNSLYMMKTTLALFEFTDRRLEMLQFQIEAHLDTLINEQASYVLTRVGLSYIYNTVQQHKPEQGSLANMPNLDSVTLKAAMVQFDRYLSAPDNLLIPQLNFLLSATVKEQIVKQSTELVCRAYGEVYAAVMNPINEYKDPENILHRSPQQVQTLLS
T2 sequence (P83436 whole entry, chain 3 of 4): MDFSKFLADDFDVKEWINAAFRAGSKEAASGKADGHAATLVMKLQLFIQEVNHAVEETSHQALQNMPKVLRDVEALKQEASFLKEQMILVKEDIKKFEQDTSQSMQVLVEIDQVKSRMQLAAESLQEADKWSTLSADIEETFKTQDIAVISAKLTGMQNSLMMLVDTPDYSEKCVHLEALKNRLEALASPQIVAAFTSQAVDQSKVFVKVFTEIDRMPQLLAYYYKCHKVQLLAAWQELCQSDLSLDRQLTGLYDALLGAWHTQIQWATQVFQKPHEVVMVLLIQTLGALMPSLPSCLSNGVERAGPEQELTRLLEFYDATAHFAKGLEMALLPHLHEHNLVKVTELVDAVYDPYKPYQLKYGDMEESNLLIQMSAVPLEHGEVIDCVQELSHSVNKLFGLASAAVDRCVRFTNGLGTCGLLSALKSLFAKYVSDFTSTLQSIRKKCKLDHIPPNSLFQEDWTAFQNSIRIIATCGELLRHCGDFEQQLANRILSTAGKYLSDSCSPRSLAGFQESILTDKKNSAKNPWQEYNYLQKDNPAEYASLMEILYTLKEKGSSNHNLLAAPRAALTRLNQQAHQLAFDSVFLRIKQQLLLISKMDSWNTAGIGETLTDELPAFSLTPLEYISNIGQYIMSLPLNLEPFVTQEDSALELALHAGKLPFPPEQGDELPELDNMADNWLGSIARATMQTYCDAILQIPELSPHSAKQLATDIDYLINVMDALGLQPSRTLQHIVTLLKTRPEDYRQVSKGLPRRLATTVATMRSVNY
T2 sequence (Q96MW5 whole entry, chain 4 of 4): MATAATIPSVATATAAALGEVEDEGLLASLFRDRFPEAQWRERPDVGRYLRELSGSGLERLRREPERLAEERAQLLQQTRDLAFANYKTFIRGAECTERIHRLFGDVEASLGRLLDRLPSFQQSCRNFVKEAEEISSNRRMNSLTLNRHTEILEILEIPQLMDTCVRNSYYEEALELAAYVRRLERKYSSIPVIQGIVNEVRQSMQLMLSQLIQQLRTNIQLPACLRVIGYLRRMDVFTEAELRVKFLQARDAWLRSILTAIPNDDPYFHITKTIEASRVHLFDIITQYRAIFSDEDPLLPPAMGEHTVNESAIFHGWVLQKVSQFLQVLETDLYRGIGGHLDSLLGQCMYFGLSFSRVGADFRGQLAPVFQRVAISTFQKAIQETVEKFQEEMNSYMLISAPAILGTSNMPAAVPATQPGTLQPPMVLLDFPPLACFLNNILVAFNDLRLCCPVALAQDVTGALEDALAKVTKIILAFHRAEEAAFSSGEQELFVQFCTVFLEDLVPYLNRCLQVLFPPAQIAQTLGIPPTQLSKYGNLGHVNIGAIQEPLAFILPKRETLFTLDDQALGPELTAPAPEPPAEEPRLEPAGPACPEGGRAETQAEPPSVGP

In the experiment with GFP-hGS15 (human) [1], “COG1-HA-GS-COG8 hybrid (hCOG1-HA-GS-TEV-hCOG8-3Myc)” yielded a co-IP efficiency (percent of input) of 0.3%.

In the case of “lobe B sub-complex, myc-tagged (hCOG5-3Myc, hCOG6-3Myc, hCOG7-3Myc, hCOG8-3Myc), Q9UP83 1-860; Q9Y2V7 1-657; P83436 1-770; Q96MW5 1-612”, the percent pull-down with GFP-hGS15 (human) [2] was less than 12%.

B1: His-hGS15-GST, full-length (FL) GS15 cytoplasmic domain (aa 1–86) (domain or fragment, human, UniProt Q9NYM9 1-86, looked up)
chain: MADWARAQSPGAVEEILDRENKRMADSLASKVTRLKSLALDIDRDAEDQNRYLDGMDSDFTSMTSLLTGSVKRFSTMARSGQDNRK
notes: Human GS15 cytoplasmic domain (aa 1–86) in pET28a; also called GST-tagged full-length (FL) GS15 cytoplasmic domain; not shown: GST, C-terminal, kept
With B1, the binding result in experiment [3] and in experiment [4] was “binds” in each case.
